Publication PMC7822688, “W196 and the β-Hairpin Motif Modulate the Redox Switch of Conformation and the Biomolecular Interaction Network of the Apoptosis-Inducing Factor” (Oxidative Medicine and Cellular Longevity, 2021)

Experiments:
Conditions in all cases: both partners purified
[1] = molecular target: T1, W196Y hAIF_(Δ1-101) (human, UniProt O95831 102-613, W196Y); experiment: ITC; Auto-iTC200, 25°C, 50 mM potassium phosphate, pH 7.4; 10-20 μM protein partner titrated into ~10 μM hAIF_(∆1-101) variant in the CTC state (premixed with NADH at a 1 : 100 ratio); single-ligand binding site model
T1 construct: FAD holoprotein; 'ox' oxidized, 'CTC' after reduction with NADH; The His6 tag is called cleavable; whether it was cleaved is told only in the supplementary materials; also called W196Yox; W196Y CTC; source: E. coli C41 (DE3), purified to homogeneity (protocol in the supplementary materials)

[2] = molecular target: T2, WT human apoptosis-inducing factor hAIF_(Δ1-101) (human, UniProt O95831 102-613); experiment: as above
T2 construct: FAD holoprotein. 'ox' is the oxidized protein; 'CTC' is the same protein reduced by an excess of NADH (FADH-/NAD+ charge transfer complex); The His6 tag is called cleavable; whether it was cleaved is told only in the supplementary materials; also called WTox; source: protocol in the supplementary materials

[3] = molecular target: T3, W196A hAIF_(Δ1-101) (human, UniProt O95831 102-613, W196A); experiment: as above
T3 construct: FAD holoprotein; 'ox' oxidized, 'CTC' after reduction with NADH; The His6 tag is called cleavable; whether it was cleaved is told only in the supplementary materials; also called W196Aox; source: E. coli C41 (DE3), purified to homogeneity (protocol in the supplementary materials)

[4] = molecular target: T3, W196A hAIF_(Δ1-101); experiment: ITC; Auto-iTC200, 25°C, 50 mM potassium phosphate, pH 7.4; 10-20 μM protein partner titrated into ~10 μM oxidized hAIF_(∆1-101) variant, without NADH; single-ligand binding site model

T3 sequence (O95831 102-613 W196A): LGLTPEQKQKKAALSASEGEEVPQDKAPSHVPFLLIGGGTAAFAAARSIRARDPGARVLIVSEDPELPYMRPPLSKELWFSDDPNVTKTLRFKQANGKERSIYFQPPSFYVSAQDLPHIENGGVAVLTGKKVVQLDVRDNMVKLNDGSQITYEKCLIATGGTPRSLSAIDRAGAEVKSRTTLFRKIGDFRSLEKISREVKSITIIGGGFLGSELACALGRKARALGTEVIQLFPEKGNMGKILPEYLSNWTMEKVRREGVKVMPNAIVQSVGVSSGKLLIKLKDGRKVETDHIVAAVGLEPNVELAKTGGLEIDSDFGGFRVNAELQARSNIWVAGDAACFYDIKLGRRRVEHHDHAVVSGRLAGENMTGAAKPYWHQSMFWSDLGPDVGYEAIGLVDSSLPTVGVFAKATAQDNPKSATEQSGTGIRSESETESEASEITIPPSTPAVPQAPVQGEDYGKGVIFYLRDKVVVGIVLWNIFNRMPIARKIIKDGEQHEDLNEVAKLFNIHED
T1 sequence (O95831 102-613 W196Y): as the sequence (O95831 102-613 W196A) above, with A95Y counted along it
T2 sequence (O95831 102-613, stated change not applied): as the sequence (O95831 102-613 W196A) above, with A95W counted along it

Kd [1]: 2100 nM
dH [1]: -8.2 kcal/mol
Kd [3]: 500 nM
dH [3]: -5.9 kcal/mol
Kd [4]: 400 nM
dH [4]: 9.6 kcal/mol
B1: human CHCHD4 (coiled-coil-helix-coiled-coil-helix domain containing 4) (natural protein, UniProt Q8N4Q1 1-142, looked up)
chain: MSYCRQEGKDRIIFVTKEDHETPSSAELVADDPNDPYEEHGLILPNGNINWNCPCLGGMASGPCGEQFKSAFSCFHYSTEEIKGSDCVDQFRAMQECMQKYPDLYPQEDEDEEEEREKKPAEQAEETAPIEATATKEEEGSS
notes: human CHCHD4, UniProtKB Q8N4Q1; synthetic codon-optimised cDNA in pET28a (NdeI-NotI); The His6 tag is called cleavable; whether it was cleaved is told only in the supplementary materials; source: E. coli C41 (DE3), purified (protocol in the supplementary materials)
Kd [2]: 200 nM
dH [2]: -20.1 kcal/mol
